Measurements: PMC4599343 (Archives of biochemistry and biophysics, 2015)

Columns and labels:
CYP2B6 [1] = biological target: T1, CYP2B6 (Homo sapiens, UniProt P20813, Y226H/K262R); assay type: biochemical; conditions: reconstituted purified enzyme
T1 sequence (P20813 29-491 Y226H/K262R): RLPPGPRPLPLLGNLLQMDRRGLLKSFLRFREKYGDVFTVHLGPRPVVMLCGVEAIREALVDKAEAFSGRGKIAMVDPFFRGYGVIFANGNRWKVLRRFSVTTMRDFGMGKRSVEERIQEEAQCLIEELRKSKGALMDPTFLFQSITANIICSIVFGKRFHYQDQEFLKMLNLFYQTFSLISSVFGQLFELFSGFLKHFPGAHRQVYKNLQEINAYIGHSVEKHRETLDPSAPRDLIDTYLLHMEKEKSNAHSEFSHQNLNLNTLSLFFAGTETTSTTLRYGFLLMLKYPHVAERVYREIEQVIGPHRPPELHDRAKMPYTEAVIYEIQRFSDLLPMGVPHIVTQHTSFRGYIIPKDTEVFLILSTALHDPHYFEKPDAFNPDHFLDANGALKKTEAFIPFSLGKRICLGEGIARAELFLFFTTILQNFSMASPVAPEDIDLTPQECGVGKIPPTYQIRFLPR

CYP2B6 [2] = biological target: T2, CYP2B6 (Homo sapiens, UniProt P20813, K262R/Y226H); assay: biochemical
T2 sequence (P20813 29-491 Y226H/K262R): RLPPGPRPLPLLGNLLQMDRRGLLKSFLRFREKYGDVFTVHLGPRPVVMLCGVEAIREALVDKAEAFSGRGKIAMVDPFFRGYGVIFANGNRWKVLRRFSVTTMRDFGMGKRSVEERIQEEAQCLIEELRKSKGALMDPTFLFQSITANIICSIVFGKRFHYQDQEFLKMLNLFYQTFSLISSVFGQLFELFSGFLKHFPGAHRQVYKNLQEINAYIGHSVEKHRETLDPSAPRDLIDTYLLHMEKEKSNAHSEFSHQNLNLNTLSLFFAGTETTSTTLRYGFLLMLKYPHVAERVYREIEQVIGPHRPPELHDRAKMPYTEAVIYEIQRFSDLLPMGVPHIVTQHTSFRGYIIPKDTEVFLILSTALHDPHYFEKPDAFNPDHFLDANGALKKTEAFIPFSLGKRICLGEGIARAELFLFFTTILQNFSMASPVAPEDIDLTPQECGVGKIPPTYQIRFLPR

[3] = substrate: CCOc1ccc2c(C(F)(F)F)cc(=O)oc2c1; assay: steady-state O-deethylation kinetics, reconstituted purified enzyme; assay type: biochemical, Oryctolagus cuniculus; conditions: heme
[4] = substrate: O=c1ccc2nc3ccc(OCc4ccccc4)cc3oc-2c1; assay: steady-state O-debenzylation kinetics, reconstituted purified enzyme; assay type: biochemical, Oryctolagus cuniculus; conditions: heme

## CCOc1ccc2c(C(F)(F)F)cc(=O)oc2c1 [7-EFC, 7-ethoxy-4-(trifluoromethyl)coumarin]
CYP2B6 [1]
  Km: 6.2 ± 0.6 µM

## OC[C@H]1O[C@H](O[C@H]2[C@H](O)[C@@H](O)[C@H](OCCCCCC3CCCCC3)O[C@@H]2CO)[C@H](O)[C@@H](O)[C@@H]1O [CYMAL-5, 5-cyclohexyl-1-pentyl-β-D-maltoside]
CYP2B6 [2]
  IC50: 739 ± 42.5 µM

B1: CYP2B4 (Oryctolagus cuniculus; H226Y) (protein)
chain: GRLPPGPSPLPVLGNLLQMDRKGLLRSFLRLREKYGDVFTVYLGSRPVVVLCGTDAIREALVDQAEAFSGRGKIAVVDPIFQGYGVIFANGERWRALRRFSLATMRDFGMGKRSVEERIQEEARCLVEELRKSKGALLDNTLLFHSITSNIICSIVFGKRFDYKDPVFLRLLDLFFQSFSLISSFSSQVFELFPGFLKYFPGTHRQIYRNLQEINTFIGQSVEKHRATLDPSNPRDFIDVYLLRMEKDKSDPSSEFHHQNLILTVLSLFFAGTETTSTTLRYGFLLMLKYPHVTERVQKEIEQVIGSHRPPALDDRAKMPYTDAVIHEIQRLGDLIPFGVPHTVTKDTQFRGYVIPKNTEVFPVLSSALHDPRYFETPNTFNPGHFLDANGALKRNEGFMPFSLGKRICLGEGIARTELFLFFTTILQNFSIASPVPPEDIDLTPRESGVGNVPPSYQIRFLAR
[3]
  Km: 28.4 ± 7.6 µM
  kcat: 0.123 ± 0.0217 s⁻¹
  kcat/Km: 4330 M⁻¹ s⁻¹
[4]
  Km: 1.03 ± 0.22 µM
  kcat: 0.03267 ± 0.000167 s⁻¹
  kcat/Km: 31700 M⁻¹ s⁻¹
